For test [1], the target named is T1, pertussis toxin (PT) (Bordetella pertussis, UniProt P04977 35-269; P04978 28-226; P04979 29-227; P0A3R5 43-152; P04981 35-133). The experiment in a line: BLI in-tandem binning on PT-biotin; competitor (Ab1, bound first): 1B7.
For test [2], the target named is T1, pertussis toxin (PT). The experiment in a line: cell-based or functional assay.
Test [3] has as its target T1, pertussis toxin (PT). The experiment in a line: BLI, antibody on AHC biosensor, PTpuri 6.25-100 nM in solution. (BLI is a label-free optical method that tracks binding on a fibre tip over time.)
Test [4] deals with T1, pertussis toxin (PT). Kind of test: BLI in-tandem binning on PT-biotin; competitor (Ab1, bound first): 11E6.

B1: 1B7 (antibody, V domains shown)
VH: QVQLQQPGSELVRPGASVKLSCKASGYKFTSYWMHWVKQRPGQGLEWIGNIFPGSGSTNYDEKFNSKATLTVDTSSNTAYMQLSSLTSEDSAVYYCTRWLSGAYFDYWGQGTTLTVSS
VL: QIVLTQSPALMSASPGEKVTMTCSASSSVSFMYWYQQKPRSSPKPWIYLTSNLPSGVPARFSGSGSGTSYSLTISSMEAEDAATYYCQQWSSHPPTFGSGTKLEIK
For B1, the “Ab2 with Ab1/Ab2 without Ab1” value with pertussis toxin (PT) [1] amounted to 1.1%. The “Minimum neutralizing concentration (CHO-K1 cells with PT toxin)” value in the test with pertussis toxin (PT) [2] worked out at 1.6 µg/mL. In the test with pertussis toxin (PT) [3], the Kd – broadly, a measure of binding affinity in units of concentration – is less than 1 pM; the koff (as a rule, the rate constant with which the complex falls apart) was less than 1e-07 s⁻¹; the kon (commonly a measure of how fast the partners come together) stood at 387000 M⁻¹ s⁻¹.

B2: 11E6 (antibody, V domains shown)
VH: EVKVVESGGGLVQPGGSLRLSCTTSGFTFTDYYVSWVRQPPGKALEWLGFIRNKVNGYTTEFSSSVKGRFTISRDNSQSILYLQMNTLRVEDSATYYCARVSYYGRGWYFDYWGQGTTLTVSS
VL: DIVMTQSTSSLSASLGDRVTISCRASQDIDNYLSWFQQKPDGTVKLLIYYTSRLHSGVPSRFSGSGSGTDYSLTISSLDQEDIATYFCQQGNTFPWTFGGGTKLEIK
With B2, the “Minimum neutralizing concentration (CHO-K1 cells with PT toxin)” value in the test with pertussis toxin (PT) [2] is 0.8 µg/mL. For the same molecule, in the test with pertussis toxin (PT) [3], the Kd is less than 1 pM, the koff is less than 1e-07 s⁻¹ and the kon stood at 311000 M⁻¹ s⁻¹. Moreover, in the test with pertussis toxin (PT) [4], the “Ab2 with Ab1/Ab2 without Ab1” value came to 0.2%.

Source of the values: patent US20230061378A1 (SUZHOU ALPHAMAB, published 2023).
